Test results reported in patent US20150267232A1, “IN VIVO AND IN VITRO CARBENE INSERTION AND NITRENE TRANSFER REACTIONS CATALYZED BY HEME ENZYMES” (California Institute of Technology, priority 2012, published 2015).

Legend:
[1] = Small-scale anaerobic C—H amination with purified enzymes, azide 6; assay type: biochemical; settings: 1% loading of hemin
Description: Hemin also was capable of catalyzing this reaction when reduced with dithionite (Table 13).
Small scale reactions containing either 0.1% loading of ABC-CIS or ABC-T268A or 1% loading of hemin with azides 1, 4, or 6 according to standard procedures.
Small-scale reactions (400 μL) were conducted in 2 mL crimp vials (Agilent Technologies, San Diego, Calif.) containing buffer (0.1 M potassium phosphate pH 8.0), enzyme (0.1-0.5% catalyst loading) and oxygen depletion system (10× stock solution containing 14,000 U/mL catalase, 1,000 U/mL glucose oxidase dissolved in 0.1 M KPi pH 8.0). Enzyme (P450 or P411) solution and oxygen depletion mixture were added to the vial with a small stir bar before crimp-sealing. Portions of phosphate buffer (190 μL, 0.1 M, pH=8.0), glucose (40 μL, 250 mM) and NADPH (40 μL, 20 mM), or multiples thereof, were combined in a larger crimp sealed vial and degassed by sparging with argon for at least 5 min. In the meantime, the headspace of the sealed 2 mL reaction vial with the P450 solution was made anaerobic by flushing argon over the protein solution (with no bubbling). The buffer/reductant/glucose solution (270 μL) was syringed into the reaction vial with continuous argon purge of the vial headspace. An arylsulfonyl azide solution in DMSO (10 μL, 80 mM) was added to the reaction vial via a glass syringe, and the reaction was left stirring for 24 h at room temperature under positive argon pressure. Final concentrations of the reagents were typically: 2 mM arylsulfonyl azide, 2 mM NADPH, 25 mM glucose, 2 or 10 μM P450. Reactions were quenched by adding 30 μL 3 M HCl under argon. To the vials were then added acetonitrile (430 uL) and internal standard (o-toluenesulfonamide 10 mM in 50% acetonitrile 50% water, 1 mM final concentration). […] A portion (20 μL) of the supernatant was then analyzed by HPLC. […] Sultam formation was quantified comparison of integrated peak areas of internal standard and sultam at 220 nm to a calibration curve made using synthetically produced sultam and internal standard.

[2] = N—H insertion, aniline with ethyl diazo acetate (EDA); assay type: biochemical; settings: for TTn / % Yield: protein 10 uM, EDA 8.5 mM, aniline 20 mM, Na2S2O4 10 mM, 12 h; for % Yield: product 4.3
Excerpt: We have found a variety of P450 variants to be general catalysts for carbenoid N—H insertion. We combined aniline with EDA in the presence of a reductant (Na2S2O4) under argon atmosphere and tested the mixture with seven P450BM3 variants previously identified as competent catalysts for cyclopropanation (Coelho, P. et al., Science. 2013, 339, 307-310). In choosing this set of P450s, we hypothesized that cyclopropanation activity could correlate with ability to generate the iron-carbenoid intermediate that is also necessary for N—H insertion. Whereas wild type BM3 (WT-BM3 (SEQ ID NO:1), Table 20, entry 1) provided only trace amounts of the desired product (4.3), a few variants gave 4.3 in good yields after 12 h at room temperature. In particular, variant H2-5-F10 which is derived from a thermostable P450BM3 lineage (Lewis, J. C. et al. ChemBioChem, 2010, 11, 2502-2505) and contains 15 mutation from WT-BM3 (SEQ ID NO:1), formed 4.3 in 47% yield and 473 turnovers (TTN) using 0.1% protein relative to EDA (entry 7). […] In contrast, when 1 mol % of the isolated hemin prosthetic group was used as catalyst, the single and double insertion products were produced in a 3.5 to 1 ratio (with a total product yield of 51%).
A representative procedure for P450-catalyzed N—H insertion is as follows. To an unsealed crimp vial, 60 μL of a P450 solution (67 or 133 μM) was added and the vial was sealed. A 12.5 mM solution of sodium dithionite in phosphate buffer (0.1 M, pH=8.0) was degassed by bubbling with argon in a 6 mL crimp-sealed vial. The headspace of the 2 mL vials containing P450 solution were flushed with argon (no bubbling). The buffer/dithionite solution (360 μL) was then added to each reaction vial via syringe, and the gas lines were disconnected from the vials. 10 μL of an 800 mM stock of aniline was added via a glass syringe, followed by 10 μL of a 340 mM stock of EDA (both stocks in MeOH). The reaction vials were then placed in a tray on a plate shaker and left to shake at 40 rpm. The final concentrations of the reagents were typically: 20 mM aniline, 8.5 mM EDA, 10 mM Na2S2O4, and 10 or 20 μM P450. After 12 h at 25° C., the vials were removed from the shaker and uncapped and 1 mL of cyclohexane was added, followed by 20 μL of a 20 mM solution of phenethyl alcohol (internal standard). The mixture was transferred to a 1.5 mL Eppendorf tube and vortexed and centrifuged (13,000×g, 1 min.). The organic layer was dried over sodium sulfate if necessary then analyzed by GC, with comparison to an authentically prepared sample that has been verified by proton NMR ([…], Varian, CDCl3).
Substitution is well-tolerated on the aniline partner on both the ortho and para positions. Reactions were analyzed by a Shimadzu GC with FID detector and J&W HP-5 column (30 m×0.32 mm, 0.25 μm film) and calibrated to an independently prepared sample of each product using phenethyl alcohol as internal standard. Reaction of aniline and EDA was also performed in milligram scale without any organic cosolvent to provide 4.3 in 65% isolated yield.
Calibration curves were plotted as follows. Yields of N—H insertion products were determined using calibration curves made with independently synthesized standards that have been verified by proton NMR, with comparison to known literature data (Baumann, L. K. et al. Organometallics. 2007, 26, 3995-4002; Anding, B. J. et al. Organometallics. 2013, 32, 2599-2607). Two stock solutions of product were made at 160 mM and 40 mM. To four or five samples containing 380 μL of buffer, product was added from either of the stock solutions such at a final concentration of 0.5-8.0 mM in 400 μL was obtained. 20 μL of internal standard was added to each eppendorf tube, then 1 mL of cyclohexane was added and the tubes were vortexed and centrifuged (13,000 ×g, 30 seconds). The organic layer was then analyzed by GC. The ratio of the areas under the internal standard and product peaks were plotted against the concentration for each solution. […]

| Molecule | Product (7) / TTN on substrate 6 [1] | ratio of single to double insertion products ([2]; 1 mol % hemin) | total product yield ([2]; 1 mol % hemin) | TTn [2] | % Yield ([2]; listed as BM3-WT) | % Yield ([2]; listed as WT-BM3) | % Yield [2] |
| --- | --- | --- | --- | --- | --- | --- | --- |
| hemin | 55 | 3.5 to 1 | 51% | – | – | – | – |
| P450BM3: wild-type cytochrome P450BM3 from Bacillus megaterium (SEQ ID NO: 1) (protein, listed as Bacillus megaterium, cytochrome P450NADPH-P-450 reductase precursor, cytochrome P450 (BM3), CYP102A1) TIKEMPQPKTFGELKNLPLLNTDKPVQALMKIADELGEIFKFEAPGRVTRYLSSQRLIKEACDESRFDKNLSQALKFVRDFAGDGLFTSWTHEKNWKKAHNILLPSFSQQAMKGYHAMMVDIAVQLVQKWERLNADEHIEVPEDMTRLTLDTIGLCGFNYRFNSFYRDQPHPFITSMVRALDEAMNKLQRANPDDPAYDENKRQFQEDIKVMNDLVDKIIADRKASGEQSDDLLTHMLNGKDPETGEPLDDENIRYQIITFLIAGHETTSGLLSFALYFLVKNPHVLQKAAEEAARVLVDPVPSYKQVKQLKYVGMVLNEALRLWPTAPAFSLYAKEDTVLGGEYPLEKGDELMVLIPQLHRDKTIWGDDVEEFRPERFENPSAIPQHAFKPFGNGQRACIGQQFALHEATLVLGMMLKHFDFEDHTNYELDIKETLTLKPEGFVVKAKSKKIPLGGIPSPSTEQSAKKVRKKAENAHNTPLLVLYGSNMGTAEGTARDLADIAMSKGFAPQVATLDSHAGNLPREGAVLIVTASYNGHPPDNAKQFVDWLDQASADEVKGVRYSVFGCGDKNWATTYQKVPAFIDETLAAKGAENIADRGEADASDDFEGTYEEWREHMWSDVAAYFNLDIENSEDNKSTLSLQFVDSAADMPLAKMHGAFSTNVVASKELQQPGSARSTRHLEIELPKEASYQEGDHLGVIPRNYEGIVNRVTARFGLDASQQIRLEAEEEKLAHLPLAKTVSVEELLQYVELQDPVTRTQLRAMAAKTVCPPHKVELEALLEKQAYKEQVLAKRLTMLELLEKYPACEMKFSEFIALLPSIRPRYYSISSSPRVDEKQASITVSVVSGEAWSGYGEYKGIASNYLAELQEGDTITCFISTPQSEFTLPKDPETPLIMVGPGTGVAPFRGFVQARKQLKEQGQSLGEAHLYFGCRSPHEDYLYQEELENAQSEGIITLHTAFSRMPNQPKTYVQHVMEQDGKKLIELLDQGAHFYICGDGSQMAPAVEATLMKSYADVHQVSEADARLWLQQLEEKGRYAKDVWAG | – | – | – | 17 | 1.7% | trace amounts | – |
| BM3-T268A: P450BM3 variant: T268A (protein, listed as Bacillus megaterium, cytochrome P450NADPH-P-450 reductase precursor, cytochrome P450 (BM3), CYP102A1) TIKEMPQPKTFGELKNLPLLNTDKPVQALMKIADELGEIFKFEAPGRVTRYLSSQRLIKEACDESRFDKNLSQALKFVRDFAGDGLFTSWTHEKNWKKAHNILLPSFSQQAMKGYHAMMVDIAVQLVQKWERLNADEHIEVPEDMTRLTLDTIGLCGFNYRFNSFYRDQPHPFITSMVRALDEAMNKLQRANPDDPAYDENKRQFQEDIKVMNDLVDKIIADRKASGEQSDDLLTHMLNGKDPETGEPLDDENIRYQIITFLIAGHEATSGLLSFALYFLVKNPHVLQKAAEEAARVLVDPVPSYKQVKQLKYVGMVLNEALRLWPTAPAFSLYAKEDTVLGGEYPLEKGDELMVLIPQLHRDKTIWGDDVEEFRPERFENPSAIPQHAFKPFGNGQRACIGQQFALHEATLVLGMMLKHFDFEDHTNYELDIKETLTLKPEGFVVKAKSKKIPLGGIPSPSTEQSAKKVRKKAENAHNTPLLVLYGSNMGTAEGTARDLADIAMSKGFAPQVATLDSHAGNLPREGAVLIVTASYNGHPPDNAKQFVDWLDQASADEVKGVRYSVFGCGDKNWATTYQKVPAFIDETLAAKGAENIADRGEADASDDFEGTYEEWREHMWSDVAAYFNLDIENSEDNKSTLSLQFVDSAADMPLAKMHGAFSTNVVASKELQQPGSARSTRHLEIELPKEASYQEGDHLGVIPRNYEGIVNRVTARFGLDASQQIRLEAEEEKLAHLPLAKTVSVEELLQYVELQDPVTRTQLRAMAAKTVCPPHKVELEALLEKQAYKEQVLAKRLTMLELLEKYPACEMKFSEFIALLPSIRPRYYSISSSPRVDEKQASITVSVVSGEAWSGYGEYKGIASNYLAELQEGDTITCFISTPQSEFTLPKDPETPLIMVGPGTGVAPFRGFVQARKQLKEQGQSLGEAHLYFGCRSPHEDYLYQEELENAQSEGIITLHTAFSRMPNQPKTYVQHVMEQDGKKLIELLDQGAHFYICGDGSQMAPAVEATLMKSYADVHQVSEADARLWLQQLEEKGRYAKDVWAG | – | – | – | 160 | – | – | 16% |
